B1: TRIAPα 9-40: variant of TRIAPα containing TRIPα 9-40 (SEQ ID NO: 8) inserted into the thioredoxin (protein)
chain: MSDKIIHLTDDSFDTDVLKADGAILVDFWAEWCGPICGYNLATLVMLGPSERVFCPLCEPCSSDIYEGPCKMIAPILDEIADEYQGKLTVAKLNIDQNPGTAPKYGIRGIPTLLLFKNGEVASATKVGALSKGQLKEFLDANLA
B2: TRIAPα 1-33: variant of TRIAPα containing TRIPα 1-33 (SEQ ID NO: 18) inserted into the thioredoxin (protein)
chain: MSDKIIHLTDDSFDTDVLKADGAILVDFWAEWCGPAREGADGAICGYNLATLVMLGPSERVFCPLCEPGPCKMIAPILDEIADEYQGKLTVAKLNIDQNPGTAPKYGIRGIPTLLLFKNGEVASATKVGALSKGQLKEFLDANLA
B3: TRIAPα 9-36: variant of TRIAPα containing TRIPα 9-36 (SEQ ID NO: 12) inserted into the thioredoxin (protein)
chain: MSDKIIHLTDDSFDTDVLKADGAILVDFWAEWCGPICGYNLATLVMLGPSERVFCPLCEPCSSGPCKMIAPILDEIADEYQGKLTVAKLNIDQNPGTAPKYGIRGIPTLLLFKNGEVASATKVGALSKGQLKEFLDANLA
B4: TRIAPα 9-42: variant of TRIAPα containing TRIPα 9-42 (SEQ ID NO: 6) inserted into the thioredoxin (protein)
chain: MSDKIIHLTDDSFDTDVLKADGAILVDFWAEWCGPICGYNLATLVMLGPSERVFCPLCEPCSSDIYELMGPCKMIAPILDEIADEYQGKLTVAKLNIDQNPGTAPKYGIRGIPTLLLFKNGEVASATKVGALSKGQLKEFLDANLA
B5: TRIAPα 9-38: variant of TRIAPα containing TRIPα 9-38 (SEQ ID NO: 10) inserted into the thioredoxin (protein)
chain: MSDKIIHLTDDSFDTDVLKADGAILVDFWAEWCGPICGYNLATLVMLGPSERVFCPLCEPCSSDIGPCKMIAPILDEIADEYQGKLTVAKLNIDQNPGTAPKYGIRGIPTLLLFKNGEVASATKVGALSKGQLKEFLDANLA
B6: TRIAPα 9-33: variant of TRIAPα containing TRIPα 9-33 (SEQ ID NO: 16) inserted into the thioredoxin (protein)
chain: MSDKIIHLTDDSFDTDVLKADGAILVDFWAEWCGPICGYNLATLVMLGPSERVFCPLCEPGPCKMIAPILDEIADEYQGKLTVAKLNIDQNPGTAPKYGIRGIPTLLLFKNGEVASATKVGALSKGQLKEFLDANLA
B7: TRIAPα 9-34: variant of TRIAPα containing TRIPα 9-34 (SEQ ID NO: 14) inserted into the thioredoxin (protein)
chain: MSDKIIHLTDDSFDTDVLKADGAILVDFWAEWCGPICGYNLATLVMLGPSERVFCPLCEPCGPCKMIAPILDEIADEYQGKLTVAKLNIDQNPGTAPKYGIRGIPTLLLFKNGEVASATKVGALSKGQLKEFLDANLA

What follows are molecules tested against TrioGEFD2 (Homo sapiens, UniProt O75962) (assay: In vitro guanine nucleotide exchange (GEF) assay on RhoA). Conditions: 20-fold molar excess (8 μM) inhibitor, 0.4 μM GST-GEFD2, 0.3 μM [3H]GDP-RhoA, 15 min.
Assay type: biochemical
Parameters: using recombinant GST-TrioGEFD2 (a.a. 1848-2298), TrioDH2 (a.a. 1848-2096); made in house
Experimental: For that purpose, aptamers, TrioGEFD2 and RhoA are expressed as GST-fusion proteins. RhoA is loaded with ^3H-GDP, and the release of GDP is followed after addition of GEFD2 in presence or in absence of the selected aptamers (as described in Debant et al., 1996).
A 20-fold molar excess (8 μM) of GST-aptamers TRIAPα, TRIAPβ (another TrioGEFD2 binding aptamer), TRIAPγ (another TrioGEFD2 binding aptamer) or the empty thioredoxine (Trx) were pre-incubated with 0.4 μM GST-GEFD2 (left side of FIG. 2A) or 0.4 μM GST-DH2 (right side of FIG. 2A), as indicated, before adding 0.3 μM of [^3H]GDP loaded GST-RhoA. The exchange activity was monitored by the decrease of [^3H]GDP bound-RhoA after 15 min (see Materials and Methods). The amount of [^3H]GDP bound-RhoA incubated without GEF (first bar on the left) was defined as 100% The values and errors bars were calculated from at least three independent experiments.
0.4 μM GST-GEFD2 were incubated with increasing amounts of GST-TRIAPα (grey bars) or GST (black bars), and the exchange assay was then performed on 0.3 μM RhoA, as described in A.
An in vitro guanine nucleotide exchange (GEF) assay was used to test whether the TrioGEFD2-binding aptamers could inhibit the catalytic activity of TrioGEFD2 towards RhoA. For this purpose, the aptamers TRIAPα, TRIAPβ and TRIAPγ (including the Trx gene) were excised from pEG202 as EcoRI/NotI fragments and cloned into pGEX4T1 EcoRI/NotI. The aptamers were then expressed and purified from bacteria as GST fusion proteins, using standard procedures (Smith and Johnson, 1988). GTPase-GST fusion proteins were prepared, loaded with [^3H]GDP and the guanine nucleotide release assays were performed as described (Debant et al., 1996), using recombinant GST-TrioGEFD2 (a.a. 1848-2298), TrioDH2 (a.a. 1848-2096). For each point, 0.3 μM GTPase was mixed with or without 0.4 μM GEF in presence of non-labeled GTP, and the reaction mix was filtered after 0 min and 15 mm reaction at 25° C. The catalytic activity of TrioGEFD2 was thus measured by the decrease of the GTPase-associated radioactivity. The results are expressed as the ratio “exchange after 15 min over exchange after 0 min” (% bound [^3H]GDP-RhoA). To measure the effect of the aptamers on the exchange activity, a 20-fold molar excess of GST-TRIAPs was pre-incubated with GEFD2 (or GEFD1) for 30 min on ice before the exchange assay was carried out. For each experiment, data were obtained in triplicate.

| Molecule | Inhibition of TrioGEFD2 exchange activity on RhoA in vitro |
| --- | --- |
| B1 | displayed fill inhibitory activity |
| B2 | displayed fill inhibitory activity |
| B3 | displayed fill inhibitory activity |
| B4 | did not alter its inhibitory effect |
| B5 | displayed fill inhibitory activity |
| B6 | had a reduced activity |
| B7 | displayed fill inhibitory activity |
